From patent US20210347889A1 (Merck Sharp & Dohme, published 2021) come the findings set out here.

In the assay the target is T1, membrane LAG3 (membrane-bound LAG3 expressed on immune cells) (human, UniProt P18627 23-525).
T1 sequence: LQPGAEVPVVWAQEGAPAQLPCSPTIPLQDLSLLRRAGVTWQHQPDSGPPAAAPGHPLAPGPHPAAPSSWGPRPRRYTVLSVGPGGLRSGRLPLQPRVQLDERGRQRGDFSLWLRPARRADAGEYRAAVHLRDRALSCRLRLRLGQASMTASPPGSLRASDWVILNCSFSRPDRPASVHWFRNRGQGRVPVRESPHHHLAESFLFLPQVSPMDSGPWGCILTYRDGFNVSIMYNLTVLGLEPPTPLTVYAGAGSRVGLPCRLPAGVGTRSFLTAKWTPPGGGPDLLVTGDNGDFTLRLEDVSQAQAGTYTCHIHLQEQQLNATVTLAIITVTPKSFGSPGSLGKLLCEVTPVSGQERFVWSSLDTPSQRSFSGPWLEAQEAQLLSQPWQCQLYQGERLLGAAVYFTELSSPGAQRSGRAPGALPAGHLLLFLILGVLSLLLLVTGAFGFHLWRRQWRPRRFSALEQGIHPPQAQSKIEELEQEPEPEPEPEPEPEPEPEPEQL
Put plainly: statement in Example 2 (rationale for sLAG3 as target engagement marker); no assay described.

B1: anti-LAG3 antibody Ab6 (antibody, human IgG4 S228P, kappa, V domains shown)
VH: QMQLVQSGPEVKKPGTSVKVSCKASGYTFTDYNVDWVRQARGQRLEWIGDINPNDGGTIYAQKFQERVTITVDKSTSTAYMELSSLRSEDTAVYYCARNYRWFGAMDHWGQGTTVTVSS
VL: DIVMTQTPLSLSVTPGQPASISCKASQSLDYEGDSDMNWYLQKPGQPPQLLIYGASNLESGVPDRFSGSGSGTDFTLKISRVEAEDVGVYYCQQSTEDPRTFGGGTKVEIKR
notes: The claims say two heavy and two light chains
As for B1, the binding result was “binds”.
